Source: paper PMC2861610 (Molecular Biology of the Cell, 2010)

What was measured:
[1] = molecular target: Abp1 (endogenous) (Dictyostelium (endogenous in Dictyostelium cells)); test: native gel or EMSA
[2] = molecular target: GST-Abp1 (Dictyostelium); test: SPR
[3] = molecular target: T1, GST fusion with the GPR loop of MyoK (Dictyostelium, UniProt Q9XXV8 114-272); test: SPR
T1 sequence (looked up): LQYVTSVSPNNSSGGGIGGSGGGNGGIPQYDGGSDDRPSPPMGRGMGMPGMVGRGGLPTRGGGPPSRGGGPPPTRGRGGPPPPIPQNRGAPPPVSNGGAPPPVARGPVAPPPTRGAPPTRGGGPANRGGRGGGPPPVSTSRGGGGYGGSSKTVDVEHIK

[4] = molecular target: T2, His-tagged dynamin A (Dictyostelium, UniProt Q94464 1-853); test: far-Western, overlay or dot blot
T2 sequence (looked up): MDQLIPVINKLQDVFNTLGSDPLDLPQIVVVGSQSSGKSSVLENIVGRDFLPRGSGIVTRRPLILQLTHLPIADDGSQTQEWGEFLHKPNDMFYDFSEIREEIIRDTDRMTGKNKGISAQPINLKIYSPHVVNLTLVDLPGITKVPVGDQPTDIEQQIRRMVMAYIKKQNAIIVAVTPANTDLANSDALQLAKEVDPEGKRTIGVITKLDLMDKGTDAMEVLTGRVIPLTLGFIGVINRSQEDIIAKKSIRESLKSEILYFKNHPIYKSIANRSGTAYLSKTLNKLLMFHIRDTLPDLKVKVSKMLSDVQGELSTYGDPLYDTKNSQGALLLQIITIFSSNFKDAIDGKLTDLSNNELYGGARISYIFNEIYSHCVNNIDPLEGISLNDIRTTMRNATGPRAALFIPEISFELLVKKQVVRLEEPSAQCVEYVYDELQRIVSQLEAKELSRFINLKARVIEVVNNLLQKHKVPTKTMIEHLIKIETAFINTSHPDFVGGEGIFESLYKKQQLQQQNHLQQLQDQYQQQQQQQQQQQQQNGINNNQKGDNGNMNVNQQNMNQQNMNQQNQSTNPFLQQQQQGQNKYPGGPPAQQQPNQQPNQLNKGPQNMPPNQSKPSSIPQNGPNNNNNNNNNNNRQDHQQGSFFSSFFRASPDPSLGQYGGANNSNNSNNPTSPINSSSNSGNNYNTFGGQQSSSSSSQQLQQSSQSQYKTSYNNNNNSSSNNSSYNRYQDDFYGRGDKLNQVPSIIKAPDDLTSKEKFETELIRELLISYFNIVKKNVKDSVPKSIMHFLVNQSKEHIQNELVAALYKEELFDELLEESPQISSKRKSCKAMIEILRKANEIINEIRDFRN

## Abp1 (endogenous) (natural protein)
[1]
  stoichiometry N: 2

B1: His-tagged dynamin A (natural protein)
chain: MDQLIPVINKLQDVFNTLGSDPLDLPQIVVVGSQSSGKSSVLENIVGRDFLPRGSGIVTRRPLILQLTHLPIADDGSQTQEWGEFLHKPNDMFYDFSEIREEIIRDTDRMTGKNKGISAQPINLKIYSPHVVNLTLVDLPGITKVPVGDQPTDIEQQIRRMVMAYIKKQNAIIVAVTPANTDLANSDALQLAKEVDPEGKRTIGVITKLDLMDKGTDAMEVLTGRVIPLTLGFIGVINRSQEDIIAKKSIRESLKSEILYFKNHPIYKSIANRSGTAYLSKTLNKLLMFHIRDTLPDLKVKVSKMLSDVQGELSTYGDPLYDTKNSQGALLLQIITIFSSNFKDAIDGKLTDLSNNELYGGARISYIFNEIYSHCVNNIDPLEGISLNDIRTTMRNATGPRAALFIPEISFELLVKKQVVRLEEPSAQCVEYVYDELQRIVSQLEAKELSRFINLKARVIEVVNNLLQKHKVPTKTMIEHLIKIETAFINTSHPDFVGGEGIFESLYKKQQLQQQNHLQQLQDQYQQQQQQQQQQQQQNGINNNQKGDNGNMNVNQQNMNQQNMNQQNQSTNPFLQQQQQGQNKYPGGPPAQQQPNQQPNQLNKGPQNMPPNQSKPSSIPQNGPNNNNNNNNNNNRQDHQQGSFFSSFFRASPDPSLGQYGGANNSNNSNNPTSPINSSSNSGNNYNTFGGQQSSSSSSQQLQQSSQSQYKTSYNNNNNSSSNNSSYNRYQDDFYGRGDKLNQVPSIIKAPDDLTSKEKFETELIRELLISYFNIVKKNVKDSVPKSIMHFLVNQSKEHIQNELVAALYKEELFDELLEESPQISSKRKSCKAMIEILRKANEIINEIRDFRN
[2]
  Kd: 0.0026 µM

B2: Profilin II (natural protein, Dictyostelium, UniProt P26200 1-124, looked up)
chain: MTWQAYVDNNLLGAGFASAALLGAADGSVWAHSAGFNVAEGKAITALFQKDGAAFATGIHVAGKKYMAIKSDTRSAYGKLGAGGVVCVKTLTCIIVAVYDDKLQPGAAANIAEKLADYLIDNNC
[2]
  Kd: 0.011 µM
[3]
  Kd: 0.108 µM
[4]
  binding result: binds

B3: GST fusion with the GPR loop of MyoK (domain or fragment)
chain: LQYVTSVSPNNSSGGGIGGSGGGNGGIPQYDGGSDDRPSPPMGRGMGMPGMVGRGGLPTRGGGPPSRGGGPPPTRGRGGPPPPIPQNRGAPPPVSNGGAPPPVARGPVAPPPTRGAPPTRGGGPANRGGRGGGPPPVSTSRGGGGYGGSSKTVDVEHIK
[2]
  Kd: 0.027 µM

B4: Profilin I (natural protein, Dictyostelium, UniProt P26199 1-126, looked up)
chain: MSWQQYVDEQLTGAGLSQGAILGANDGGVWAKSSGINITKPEGDGIAALFKNPAEVFAKGALIGGVKYMGIKGDPQSIYGKKGATGCVLVRTGQAIIVGIYDDKVQPGSAALIVEKLGDYLRDNGY
[3]
  Kd: ~0.5 µM
[4]
  binding result: binds
